# Laboratory results reported in article PMC4847776, “Mutagenesis of mNeptune Red-Shifts Emission Spectrum to 681-685 nm” (PLoS ONE, 2016).
# Changes are numbered by the printed parent chain.
# T1: mNeptune681_Q159C
# T1 chain: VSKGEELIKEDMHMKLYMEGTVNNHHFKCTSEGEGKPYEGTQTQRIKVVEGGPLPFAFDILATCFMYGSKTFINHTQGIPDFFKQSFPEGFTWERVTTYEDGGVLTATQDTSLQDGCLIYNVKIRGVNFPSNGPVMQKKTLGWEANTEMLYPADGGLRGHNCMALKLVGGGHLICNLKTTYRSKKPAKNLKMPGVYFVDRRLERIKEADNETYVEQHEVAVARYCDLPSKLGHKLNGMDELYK
# T2: mNeptune681_Q159I
# T2 chain: T1 chain with C162I
# T3: mNeptune681_Q159L
# T3 chain: T1 chain with C162L
# T4: mNeptune681_Q159T
# T4 chain: T1 chain with C162T
# T5: mNeptune681_Q159M
# T5 chain: T1 chain with C162M
# T6: mNeptune681_Q159V
# T6 chain: T1 chain with C162V
# T7: mNeptune681_Q159W
# T7 chain: T1 chain with C162W
# B1: mNeptune681_Q159C (other)
# chain: T1 chain
# modifications: autocatalytic Met-Tyr-Gly chromophore / autocatalytic Met-Tyr-Gly chromophore
# B2: mNeptune681_Q159I (other)
# chain: T1 chain with C162I
# modifications: autocatalytic Met-Tyr-Gly chromophore / autocatalytic Met-Tyr-Gly chromophore
# B3: mNeptune681_Q159L (other)
# chain: T1 chain with C162L
# modifications: autocatalytic Met-Tyr-Gly chromophore / autocatalytic Met-Tyr-Gly chromophore
# B4: mNeptune681_Q159T (other)
# chain: T1 chain with C162T
# modifications: autocatalytic Met-Tyr-Gly chromophore / autocatalytic Met-Tyr-Gly chromophore
# B5: mNeptune681_Q159M (other)
# chain: T1 chain with C162M
# modifications: autocatalytic Met-Tyr-Gly chromophore / autocatalytic Met-Tyr-Gly chromophore
# B6: mNeptune681_Q159V (other)
# chain: T1 chain with C162V
# modifications: autocatalytic Met-Tyr-Gly chromophore / autocatalytic Met-Tyr-Gly chromophore
# B7: mNeptune681_Q159W (other)
# chain: T1 chain with C162W
# modifications: autocatalytic Met-Tyr-Gly chromophore / autocatalytic Met-Tyr-Gly chromophore
# Experiments:
# Experiment in all cases: SEC; Superdex 200 10/300 GL column, PBS (pH 7.4), protein approximate 3–4 mg/ml; elution volume compared with mNeptune (monomer standard) and eqFP670 (dimer standard)
# eqFP670 = molecular target: eqFP670
# mNeptune681_Q159F = molecular target: mNeptune681_Q159F
# mNeptune681_Q159Y = molecular target: mNeptune681_Q159Y
# mNeptune681_Q159C = molecular target: T1, mNeptune681_Q159C; settings: both partners purified
# mNeptune681_Q159I = molecular target: T2, mNeptune681_Q159I; settings: both partners purified
# mNeptune681_Q159L = molecular target: T3, mNeptune681_Q159L; settings: both partners purified
# mNeptune681_Q159T = molecular target: T4, mNeptune681_Q159T; settings: both partners purified
# mNeptune681_Q159M = molecular target: T5, mNeptune681_Q159M; settings: both partners purified
# mNeptune681_Q159V = molecular target: T6, mNeptune681_Q159V; settings: both partners purified
# mNeptune681_Q159W = molecular target: T7, mNeptune681_Q159W; settings: both partners purified
molecule,measurement,setting,value
eqFP670,stoichiometry N,eqFP670,2
mNeptune681_Q159F,stoichiometry N,mNeptune681_Q159F,2
mNeptune681_Q159Y,stoichiometry N,mNeptune681_Q159Y,2
B1,stoichiometry N,mNeptune681_Q159C,2
B2,stoichiometry N,mNeptune681_Q159I,2
B3,stoichiometry N,mNeptune681_Q159L,2
B4,stoichiometry N,mNeptune681_Q159T,2
B5,stoichiometry N,mNeptune681_Q159M,2
B6,stoichiometry N,mNeptune681_Q159V,2
B7,stoichiometry N,mNeptune681_Q159W,2
